Data from the RNAGym collection of RNA variant scans (doi:10.1073/pnas.2313332121).

B1: TPR t1 (parent)
chain: GACCAAUCUGCCCUCAGAGCUCGAGAACAUCUUCGGAUGCAGAGGAGGCAGGCUUCGGUGGCGCGAUAGCGCCAACGUCCUCAACCUCCAAUGCAUCCCACCACAUGAUGAUGCCUGAAGAGCCUUGGUUUUUUG

Variants of: B1
Assay: polymerase ribozyme fitness, log enrichment relative to wild type (log ratio); higher = more active; in vitro selection for triplet polymerase activity
Procedure, shortened: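 Frozen incubation at −7 °C formed the core of a single, triplicate in vitro selection round applied to PCR-built, transcribed mutant libraries of each subunit of a heterodimeric triplet polymerase ribozyme. Extended constructs were gel-excised, captured with streptavidin beads and amplified by RT-PCR, and input and output libraries were Illumina-sequenced with a filter of ≥10 input reads and ≥1 read per output. Fitness is the logarithm of genotype enrichment relative to wild-type enrichment, with inverse-variance-weighted replicate averaging, and the logarithm is base 2.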

Point of comparison: GACCAAUCUGCCCUCAGAGCUCGCGAACAUCUUCGUUUGCAUAGGAGGCAGGCUUCGGUGACGCGAUAGCGCCAACGUACUCAACCUCCAAUGCAUCCCACCACAUGAUCAUGCCUGAAGAGUCUUGGUUUUUUG [A24C G36U A37U G42U G61A C79A G110C C123U], “polymerase ribozyme fitness (log ratio)” value -7.34. Against it:
- GACCAAUCUGCCCUCAGAGCUCUAGAACAUCUUCGGAUGCAGAGGAGGCAAGCUUCGGUGGCGCGAUAGAGCCAACGUCCUCAACCUCCAAUGCAUCCCAACACAUGAUAAUGACUGAAGAGCCUUGGUUUUUUG [G23U G51A C70A C101A G110A C114A] — higher, -6.74
- GACCAAUCUGCCCUCAGAGCUCUAGAACAUCUUCGGAUGCAGAGGAGGCAGGCUUCGGUGGCGCGAUAGCGCGAACGUCCUCAACCUCCAAUGCAUCCCACCACAUGAUGAUGCCUGAAGAGCCUUGGUUUUUUG [G23U C73G] — higher, -4.76
- GACCAAUCUGCCCUCAGAGCUCGCGAACAUCUUCGGAUGCAGAGGAGGCAGGCUUCGGUGGCGCGAUAGCGCAAACGUCCUCAACCUCCAAUGCAUCCCACCACAUGAUGAUGCCUGAAGAGCCUUGGUUUUUUG [A24C C73A] — higher, -6.46
- GACCAAUCUGCCCUCAGAGCUCUAGAACAUCUUCGGAUGCAGAGGAGGCAGGCUUCGGUGGCGCGAUAGAGCCAACGUCCUCAACCUCCAGUGCAUCCCACCACAUUAUGAUGUCUGAAGAGCCUUGGUUUUUUG [G23U C70A A91G G107U C114U] — higher, -5.99
- GACCAAUCUGCCCUCAGAGCUCCAGAACACCUUCGGAUGCAUAGGAGGCAGGCUUCGGUGGCGCGAUAACGCCAACGGCCUCAACCUCCAAUGCAUCCCACCACCUGAUGAUGCGUGAAGAGCCUUGGUUUUUUG [G23C U30C G42U G69A U78G A105C C115G] — higher, -7.04
- GACCAAUCUGCCCUCAGAGCUCUAGAACAUCUUCGGAUGCAGAGGAGGCAGGCUUCGAUCGCGCGAUAGCGCCAACGUCCUCAACCUCCAAUGCAUCCCACCACAUGAUGAUGCCUGAACAGCCUUGGUUUUUUG [G23U G58A G60C G120C] — within 0.2 log units, -7.23
- GACCAAUCUGCCCUCAGAGCUCCAGAACAUCUUCGGAUGCAGAGGAGGCAGGCUUCGGUAGCGCGAUAGCGCCAACCUCCUCAACCUCCAAUGCAUCGCACCACAUGAUGAUGCCUGAUGAGCCUUGGUUUUUUG [G23C G60A G77C C98G A119U] — within 0.2 log units, -7.44
- GACCAAUCUGCCCUCAGAGCUCCAGAACAUCUUCGGAUGCAGAGGAGGCAGGCUUCGGUGGCGCGAUAGCGCCAACGUCCUCAACCUCCAAUGCAUCCCACCACAUGAUGAUGCCUGAAGGGCCUUGGUUUUUUG [G23C A121G] — higher, -6.91
- GACCAAUCUGCCCUCAGAGCUCGCGAACAUCUUCAGAUGCAGAGGAGGCAGGCUGCGGUGGCGCGAUAGCGCCAACGUCCUCAACCUCCAAUGCAUCCCACCACAUGAUGAUGCUUGAAGAGCCUUUGUUUUUUG [A24C G35A U55G C115U G127U] — higher, -6.12
- GACCAAUCUGCCCUCAGAGCUCCAGAACAUCUUCGGAUGCAGAGGAGGCAGGUUUCGGUGGCGCGAUAGCGCCAACGUCCUCAACCUCCAAGGCAUCCCACCACAUGAUGAUGCCUGAAGAGUCUUGGUUUUUUG [G23C C53U U92G C123U] — lower, -8.04
- GACCAAUCUGCCCUCAGAGCUCUAGAACAUCUUCGGAUGCAGAGGAGGCAUGCUUAGGUGGCCCGAUACCGCCAACGUCCUCAACCUCCAAUGCAUCCCACCACAUGAUGAUGACUGAAGUGCCUUGGUUUUUUG [G23U G51U C56A G63C G69C C114A A121U] — higher, -5.92
- GACCAAUCUGCCCUCAGAGCUCCAGAACAUCUUCGGAUGCAGAGGAGGCAGGCUUCGGUGGCGCGAUAGAGCCAACGUCCUCAACCUCCAAUGCAUCCCACCACAUGAUGAUUCCUCAAGAGCCUUGGUUUUUUG [G23C C70A G113U G117C] — higher, -6.09
- GACCAAUCUGCCCUCAGAGCUCGCGAACAUGGUCGGAUGCAGAGGAGGCAGGCUUCGGUGGUGCGAUAGCGCCAACGUCCUCAACCUCCAAUGCAUCCCACCACAUGAUGAUGGCUGAAGAGCCUUGGUUUUUUG [A24C C31G U32G C62U C114G] — lower, -8.07
- GACCAAUCUGCCCUCAGAGCUCGCGAACAUCUUCGGAUGCAGAGGAGGCAGGCUUCGGUGGCGCGAUAGCGCCAACGUCCUCAACCUCCAAUGCAUCCCACCACAUGAUGAUGCCUGAAGAGCAUUGGUUUUUUG [A24C C124A] — higher, -5.24
- GACCAAUCUGCCCUCAGAGCUCGCGAACAUCUUCGGAUACAGAGGAGGCAGGCUCCGGUGGCGCGAUAGCGCCAACGUCCUCAACCUCCAAUGCAUCCCACCAAAUGAUGAUGCCUGAAGAGCGUUGGUUUUUUG [A24C G39A U55C C104A C124G] — higher, -5.87
- GACCAAUCUGCCCUCAGAGCUCUAGAACAUCUUAGGAUGCAGAGGAAGCAGGGUUCGGUGGCGCGAUAGCGCCAACGUCCUCAACCUCCAAUGCAUCCCACCACAUGAUCAUGCCUGAAGAGCCUUGGGUUUUUG [G23U C34A G47A C53G G110C U129G] — within 0.2 log units, -7.48
- GACCAAUCUGCCCUCAGAGCUCUAGGACAUCUUCGGAUGCAGAGGAGGCAGGCUUCGGUGGCUCGAUAGCGCCAACGUCCUGAACCUCCAAUGCAUCCCACCACAUGAUGAUGCCUGAAGAGCCUUGGUUUUAUG [G23U A26G G63U C82G U133A] — higher, -7.09
- GACCAAUCUGCCCUCAGAGCUCUAGAACAUCUUCGGAUGCAUAGGAGGCAGGCGUCGGUGGCGGGAUAGCGCCAACGUCCUCAACCUCCAAUCCAUCCCACCACAUGAUGAUGCCUCAAGAGCCUUGGUUUUUUG [G23U G42U U54G C64G G93C G117C] — higher, -6.49
- GACCAAUCUGCCCUCAGAGCUCCAGAACAUCUUCGGAUGCAGAGGAGGCAGGCUUCGGUGGCGCGAUACCGCCAACGUCCUCAACCUCCAAUGGAACCCACCACAUGAUGAUUCCUGAACAGCCUUGGUUUUUUG [G23C G69C C94G U96A G113U G120C] — higher, -7.12
- GACCAAUCUGCCCUCAGAGCUCCAGAACAUCUUCGGAUGCAGAGGAGGCAGGCUUCGGUGGCGCGAUAUCGCCAACGUCCUCAACCUCCAAUGCAUCCCACCACAUGAUGAUGCCUGAAGAGCCUUGGUUUUUUG [G23C G69U] — higher, -5.11
